Source: FireProtDB (doi:10.1110/ps.051460505)
Values joined by “and” are separate entries in the source; they are usually repeats but may differ in a detail not shown here. Equal values may be shown once.

B1: Gamma-crystallin D, P07320 (parent)
chain: MGKITLYEDRGFQGRHYECSSDHPNLQPYLSRCNSARVDSGCWMLYEQPNYSGLQYFLRRGDYADHQQWMGLSDSVRSCRLIPHSGSHRIRLYEREDYRGQMIEFTEDCSCLQDRFRFNEIHSLNVLEGSWVLYELSNYRGRQYLLMPGDYRRYQDWGATNARVGSLRRVIDFS

Variants of: B1
Conditions: Homo sapiens; pH 7; 37 °C; GdnHCl; Fluorescence; Sodium phosphate 10 mM; transition: 3; structure 1HK0; whole UniProt chain shown

Variant | ddG of mutation (higher = less stable) | denaturant m value | denaturant midpoint (higher = more stable) | unfolding free energy
R80A | 1 kcal/mol and 1.3 kcal/mol | 3.4 kcal/mol/M and 2.7 kcal/mol/M | 1.8 M and 2.9 M | 6.7 kcal/mol and 7.6 kcal/mol
Q55A Q143A |  | 3.5 kcal/mol/M and 3.1 kcal/mol/M | 1.8 M and 3.1 M | 6.3 kcal/mol and 9.6 kcal/mol
Q143A |  | 3.8 kcal/mol/M and 3 kcal/mol/M | 1.9 M and 3 M | 7.2 kcal/mol and 9 kcal/mol
M147A | 0 kcal/mol | 3.1 kcal/mol/M | 2.8 M | 8.9 kcal/mol
Q55A |  | 3.8 kcal/mol/M and 3.4 kcal/mol/M | 2 M and 2.9 M | 7.5 kcal/mol and 9.6 kcal/mol
R80A M147A |  | 3.2 kcal/mol/M | 1.7 M and 2.8 M | 5.6 kcal/mol and 8.9 kcal/mol
